# Source: PMC9926306
# Biological target: ABCA1 (mouse (endogenous in J774)) (UniProt P41233)
# Sequence of UniProt P41233 (P41233 whole entry): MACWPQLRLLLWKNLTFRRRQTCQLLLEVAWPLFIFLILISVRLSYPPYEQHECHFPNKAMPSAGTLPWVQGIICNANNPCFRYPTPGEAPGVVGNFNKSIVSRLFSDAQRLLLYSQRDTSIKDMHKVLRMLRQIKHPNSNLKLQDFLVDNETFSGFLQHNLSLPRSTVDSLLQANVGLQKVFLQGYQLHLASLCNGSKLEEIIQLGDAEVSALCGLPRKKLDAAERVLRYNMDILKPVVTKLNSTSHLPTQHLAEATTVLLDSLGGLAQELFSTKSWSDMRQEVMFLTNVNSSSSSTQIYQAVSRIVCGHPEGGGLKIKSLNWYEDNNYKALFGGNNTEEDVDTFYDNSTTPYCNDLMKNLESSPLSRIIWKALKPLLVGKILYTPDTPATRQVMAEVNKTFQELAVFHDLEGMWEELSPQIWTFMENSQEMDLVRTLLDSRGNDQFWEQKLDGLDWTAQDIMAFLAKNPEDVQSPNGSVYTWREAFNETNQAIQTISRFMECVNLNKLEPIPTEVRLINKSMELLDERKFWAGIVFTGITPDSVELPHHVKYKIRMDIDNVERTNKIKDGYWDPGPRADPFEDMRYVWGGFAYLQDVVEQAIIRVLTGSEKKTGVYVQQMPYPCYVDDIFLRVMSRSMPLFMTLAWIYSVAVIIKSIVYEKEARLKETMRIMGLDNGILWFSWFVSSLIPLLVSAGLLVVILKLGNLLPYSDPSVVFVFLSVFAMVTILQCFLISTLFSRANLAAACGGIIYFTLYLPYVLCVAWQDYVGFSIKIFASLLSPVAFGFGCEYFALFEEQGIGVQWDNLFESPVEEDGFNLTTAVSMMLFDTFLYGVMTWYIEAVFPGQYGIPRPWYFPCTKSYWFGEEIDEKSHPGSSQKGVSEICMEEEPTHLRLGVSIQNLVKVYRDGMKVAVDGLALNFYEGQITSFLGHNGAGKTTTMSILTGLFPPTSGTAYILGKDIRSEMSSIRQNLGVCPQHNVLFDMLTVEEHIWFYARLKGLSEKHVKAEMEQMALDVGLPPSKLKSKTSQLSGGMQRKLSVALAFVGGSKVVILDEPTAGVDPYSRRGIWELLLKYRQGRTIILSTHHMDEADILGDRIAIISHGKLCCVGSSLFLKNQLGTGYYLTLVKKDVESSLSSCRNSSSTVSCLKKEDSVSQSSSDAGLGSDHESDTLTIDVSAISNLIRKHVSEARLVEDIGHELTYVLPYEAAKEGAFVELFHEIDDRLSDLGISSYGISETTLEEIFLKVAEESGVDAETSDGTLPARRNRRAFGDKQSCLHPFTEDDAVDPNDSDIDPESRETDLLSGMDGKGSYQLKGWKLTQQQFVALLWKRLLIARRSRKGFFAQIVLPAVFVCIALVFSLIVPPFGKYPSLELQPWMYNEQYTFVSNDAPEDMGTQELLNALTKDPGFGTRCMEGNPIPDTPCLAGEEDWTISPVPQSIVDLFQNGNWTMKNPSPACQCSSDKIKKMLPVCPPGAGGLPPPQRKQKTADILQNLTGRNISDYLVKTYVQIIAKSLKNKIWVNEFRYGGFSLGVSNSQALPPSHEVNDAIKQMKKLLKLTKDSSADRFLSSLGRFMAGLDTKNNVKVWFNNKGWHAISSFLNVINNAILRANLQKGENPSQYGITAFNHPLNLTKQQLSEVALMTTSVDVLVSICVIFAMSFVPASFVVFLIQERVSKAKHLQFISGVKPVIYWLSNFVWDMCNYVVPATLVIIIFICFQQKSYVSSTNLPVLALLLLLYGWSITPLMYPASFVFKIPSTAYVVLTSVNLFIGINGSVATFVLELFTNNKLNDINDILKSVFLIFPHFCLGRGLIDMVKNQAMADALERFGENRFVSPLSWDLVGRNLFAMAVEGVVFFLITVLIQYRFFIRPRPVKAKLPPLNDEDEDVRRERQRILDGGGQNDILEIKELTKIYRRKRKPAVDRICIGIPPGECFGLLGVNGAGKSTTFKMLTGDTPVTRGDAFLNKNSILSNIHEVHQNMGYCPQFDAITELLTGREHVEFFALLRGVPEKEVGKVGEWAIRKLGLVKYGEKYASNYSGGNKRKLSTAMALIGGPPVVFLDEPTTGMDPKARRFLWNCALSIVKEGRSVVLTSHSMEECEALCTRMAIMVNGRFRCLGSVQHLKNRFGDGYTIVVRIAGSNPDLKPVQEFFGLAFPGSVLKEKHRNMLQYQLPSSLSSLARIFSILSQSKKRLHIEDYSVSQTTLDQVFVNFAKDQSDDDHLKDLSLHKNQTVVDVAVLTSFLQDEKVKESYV
substance,measurement,value
apoA-I[K107del] (natural protein),"percent BODIPY-cholesterol efflux from J774 cells treated with cAMP (ABCA1 upregulated), apoA-I 10 ug/ml, 6 and 24 h; value after 24 h",27.9%
WT apoA-I (from UniProt P02647 19-267) (natural protein),"percent BODIPY-cholesterol efflux from J774 cells treated with cAMP (ABCA1 upregulated), apoA-I 10 ug/ml, 6 and 24 h; value after 24 h",28.7%
